The record followed here is the nanobody polyreactivity screen of Harvey et al. (2022).

A short description of the series: yeast display, Sf9 membrane polyspecificity reagent, FACS + sequencing; frameworks hold sequencing errors. Summed up:
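After 36–48 hours of galactose induction, yeast (Saccharomyces cerevisiae BJ5465) displaying a synthetic nanobody library were stained at 4 °C for 1 hour with 10% biotinylated, detergent-solubilized Sf9 membrane reagent. Streptavidin microbeads enriched the stained cells before FACS sorting into low and high (top ~1%) gates on anti-HA and streptavidin fluorescence. Each clone's polyreactivity label reflects its gate of origin.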
Take “QVQLVESGGGLVQAGGSLRLSCAASGRTYWPNALGWSRQARGKERELVAAISWRGGSTSYADSVKGRFTISRDNAKNTVYLQMNRLKPEDTAVYYCAATSIRRNSKVLISGRLYDYWGQGTQVTVSS”: the “polyreactivity (PSR sort gate)” value was “high polyreactivity”. As for “QVQLVESGGGLVQAGGSLRLSCAASGRTYYYYAMGWYRQAPGTQRELVASIRYSTGSTYYADSVKARFTISRDNAKNTVYLQKNSLKPVDTAVYYCAGLRYARASRYDYWGLGTQVTVSS”, the “polyreactivity (PSR sort gate)” value is on record as “high polyreactivity”.

Take “QVQLVESGGGLVQAGGSLRLSCAASGRVFTPYAMGWYRQAPGKERELVAVIRDGSTYYADSVKGRFTISRDNAKNTVYLQMNSLKPEDTAVYYCRYDIWVWWSGAYDYWGQVTQVTVSS”: the “polyreactivity (PSR sort gate)” value was “low polyreactivity”. The value for “QVQLVESGGGLVQAGGSLRLSCAASGSFGFYVMGWYRQAPGKERELVSAISSVGSTNYADSVKGRFTISRDNAKNTVYFQMNSLKPEDTAVYYCARRYWYPDAFYRYDYWGQGTQVTVSS” was “low polyreactivity”; that for “QVQLVESGGGLVQAGGSLRLSCAASGSFYDRYVMGWYRQAPGKERELVAAISSSGGSTYYADSVKGRFTISRDNAKNTVYFQMNSLKPEDSAVYYCAAKFSYGRYNYWGQGTQVTVSS” was “high polyreactivity”; that for “QVQLVESGGGLVQAGGSLRLSCAASGSIAHYAMGWYRQAPGKERELVAAINWSGGSTNYADSVKGRFTISRDNAKNTVYLQMNSLKPEDTAVYYCNAAGGYKPYLQDVASRYDYWGQGTQVTVSS” was “high polyreactivity”.

In the case of “QVQLVESGGGLVQAGGSLRLSCAASGSIAKINAMGWYRQAPGKERELVAAINTGDSTYYADSVKGRFTISRDNAKNTVYLQMNSLKPEDTAVYYCAAEGSPNGYDYWGQGTQVTVSS”, the “polyreactivity (PSR sort gate)” value was “low polyreactivity”.

With “QVQLVESGGGLVQAGGSLRLSCAASGSICGTYAMGWYRQAPGKERELVARITRGVSTNYADSVKGRFTISRDNAKNTVYLQMTSLKPEDTAVYYCAAESGNRYEYWGQGTQVTVSS”, the “polyreactivity (PSR sort gate)” value was “low polyreactivity”. The value for “QVQLVESGGGLVQAGGSLRLSCAASGSICVRNAMGWYRQAPGKERELVAADSVKGRFTISRDNAKNTVYLQMNSLKPEDTAVYYCNKAYIIRRGPIVYYGFDYWGQGTQVTVSS” was “low polyreactivity”; that for “QVQLVESGGGLVQAGGSLRLSCAASGSIDGRYAMGWYRQAPGKERELVAVITSGGSTNYADSVKGRFTISRDNAKNTVYLQMKSLKPEDTAVYYCAVRPYALHRLADQPGGDDYWGQGTQVTVSS” was “low polyreactivity”; that for “QVQLVESGGGLVQAGGSLRLSCAASGSIDRFYAMGWYRQAPRKERDLVAFITSTGRTYYADSVKGRFTISRDNAKNTVYLQMNSLKPEDTAVYYCAAGYPKRVAYLWFSQYDYWGKGTQVTVSS” was “low polyreactivity”. Consider “QVQLVESGGGLVQAGGSLRLSCAASGSIFAANALGWYRQAPGKERELVAAITSGGGSTYYADSVKGRFTISRDNAKNTVYLQMNSLKPEDTAVYYCAARSLVQDHAYGNNYWGQGTQVTVSS”, for which the “polyreactivity (PSR sort gate)” value is “low polyreactivity”.

Regarding “QVQLVESGGGLVQAGGSLRLSCAASGSIFADYAMGWYRQAPGKERELVSAITGSGGRTYYADSVKGRFTISRDNAKNTLYLQMNSLKPEDTAVYYCAADGLSNVRQMDYWGQGTQVTVSS”, the “polyreactivity (PSR sort gate)” value was “low polyreactivity”. The value for “QVQLVESGGGLVQAGGSLRLSCAASGSIFAFNAMGWYRQAPGKERELVAAMSGSGARTYYADSVKGRFTTSRDNAKNTVYLQLNSLKPEDTAVYYCARPYGYGYDYWGQGTQVTVSS” was “high polyreactivity”. For “QVQLVESGGGLVQAGGSLRLSCAASGSIFAFYAKGWYRQAPGKERELVAYITSGGSTYYADSVKGRFTISRDNAKNNVYLQMNSLKPEDTAVYYFNSVYYSALVSGGETTIKRRYYWGQGTQVTVSS” the value was “high polyreactivity”; for “QVQLVESGGGLVQAGGSLRLSCAASGSIFAGHAMGWSIQAPGKERELVAAISRRGGNTYYADSVKGRFTISRDNAKNTVYLQMNSLKPEDTAVYYCAVRSRLYSSSIAYDYWGQGTQVTVSS”, “high polyreactivity”. For “QVQLVESGGGLVQAGGSLRLSCAASGSIFAGYAMGWYRQAPGKERELVAAITSRGGNTYYADSVKGRFTISRDNAKNTVYLQMNSLKPEDTAVYYCAADVTRWSWVGTHYYWGQGTQVTVSS” the value was “high polyreactivity”; for “QVQLVESGGGLVQAGGSLRLSCAASGSIFAHYAMGWYRQAPGKERELVARISWSGGSTYYADSVKGRFTISRDNEKNTVYLQKNSMKPEDTAVYYCARAGRSWDTLYKYYLEHDYWGQGTQVTVSS”, “low polyreactivity”.

For the sequence “QVQLVESGGGLVQAGGSLRLSCAASGSIFAINAMGWDRQAPGKERELVAAITRGGSTYADSVKGRFTISRDNAKNTVYLQINSLKPEDTAVYYCAARWYRRGNGFNYWGQCTQVTVSS”, the “polyreactivity (PSR sort gate)” value was “high polyreactivity”. For the sequence “QVQLVESGGGLVQAGGSLRLSCAASGSIFAIYAMGWYRQAPGKERELVAAISSSSGSTYYADSVKARFTISRDNAKNTVYLQMYSLKPEDTAVYYCAAESGRRIKYWRGYYYWGQGTQVTVSS”, the “polyreactivity (PSR sort gate)” value is “low polyreactivity”. The value for “QVQLVESGGGLVQAGGSLRLSCAASGSIFAKNAMGWYRQAPGKERELVAGIDFSGGSTYSADSVKGRFTISRDNAQNTVYLQMNSLKPEDTAVDYCAADWAYKYELDYWGQGTQVTVSS” was “low polyreactivity”; that for “QVQLVESGGGLVQAGGSLRLSCAASGSIFALYAMGWSRQEPGKEREFVAAISYRGGRTYYADSVKGRFTISRDNAKNTVYLQMNSLKPEDTAVYYCDTDFPGKFDYWGQGTQVTVSS” was “low polyreactivity”. Consider “QVQLVESGGGLVQAGGSLRLSCAASGSIFANYAMGWYRQAPGKERELVAAITFSSGDSTYYADSVKGRFTISRDNAKNTVYLQMNSLKPEDTAVDYCATVTYGWSGYDYWGQGTQVTVSS”, for which the “polyreactivity (PSR sort gate)” value was “low polyreactivity”. The value for “QVQLVESGGGLVQAGGSLRLSCAASGSIFAPYVMGWYRQAPGKERELVAAITESGGRTYYADSVKGRFTISRDNAKNTVYLQMNSLKPEDTAVYYCAARTYDRNRQLRRQWYDYWGQGTQVTVSS” was “high polyreactivity”; that for “QVQLVESGGGLVQAGGSLRLSCAASGSIFARYAMGWYRQAPGKERELVATITRGGSTNYADSVKGRFTISRDNAKNTVYLQMNSLKPEDTAVYYCARTSYGRLDYWGQGTQVTVSS” was “low polyreactivity”; that for “QVQLVESGGGLVQAGGSLRLSCAASGSIFARYTMGWYRQAPGKERELVAAISTSGSRTYYADSVKGRFTISRDNAKNCVYLLMNSLKPEDTAVYYCNVAWIWGKYDYWGPGTQVTVSS” was “high polyreactivity”. Regarding “QVQLVESGGGLVQAGGSLRLSCAASGSIFASNAMGWYRQAPGKERELVADISGTTGSTYYADSVKGRFTISRDNAKNTVYLQMNSLKPEDTAVYYCAADLVWVSTSYYYWGQGTLVTVSS”, the “polyreactivity (PSR sort gate)” value is reported as “low polyreactivity”.

In the case of “QVQLVESGGGLVQAGGSLRLSCAASGSIFASNAMGWYSPAPGKERELVAAINSGDSTNYADSVKGRFTISRDNAKNTVYLQMNSLKPEDTAVYYCARGLEERYDYWGQGTQVTVSS”, the “polyreactivity (PSR sort gate)” value is recorded as “low polyreactivity”.

For the sequence “QVQLVESGGGLVQAGGSLRLSCAASGSIFASYAMGWYRQAPGKERELVAAISRSGTSTRYADSVKGRFTISRDNAKNTVYLLMNSLKPEDTAVYYCAARWYVFFRKYDYWGQGTQVTVSS”, the “polyreactivity (PSR sort gate)” value was “high polyreactivity”. For the sequence “QVQLVESGGGLVQAGGSLRLSCAASGSIFASYGLGWYRQAPGKARELVAAITSRGTSTYYADSVKGRFTISRDNAKNTVDLQMHSLKPEETAVYYCAARLYGSAPQHEYWGQGTQVTVSS”, the “polyreactivity (PSR sort gate)” value was “low polyreactivity”.

Turning to “QVQLVESGGGLVQAGGSLRLSCAASGSIFATYAMGWYRQAPGKERELVAAITASDGSTNYADSVKGRFTLSRDNAQNTVYLQMNSLKPEDTAVYYCATDAPYRTDSDSGFDAGYDYWGQGTQVTLSS”, the “polyreactivity (PSR sort gate)” value is “low polyreactivity”. On to “QVQLVESGGGLVQAGGSLRLSCAASGSIFAVNAMGWYRQAPGKERELVASITSGGSTNYADSVKGRFTISRDNAKNTVYLQMNSLKPEDTAVYYCNADRVRAVSRYDYWGQGTQLTVSS”, for which the “polyreactivity (PSR sort gate)” value is reported as “low polyreactivity”. As to “QVQLVESGGGLVQAGGSLRLSCAASGSIFAVYAMGWYRQAPGKERELVAVITRSGGSTYYADSVKGRFTISRDNAKNTVYLQMNSLKPEDTAVYYCAARTGYGYTRYEYWGQGTQVTVSS”, the “polyreactivity (PSR sort gate)” value is reported as “high polyreactivity”.

As for “QVQLVESGGGLVQAGGSLRLSCAASGSIFAVYAMGWYRQAPGKERELVAVITRSGGSTYYADSVKGRFTISRDNAKNTVYLQMNTLKPEDTADYYCAARTGYGYTRYEYWGQGTQVTVSS”, the “polyreactivity (PSR sort gate)” value is “high polyreactivity”. For “QVQLVESGGGLVQAGGSLRLSCAASGSIFAWYAMGWYRQAPGKERELVADITQSGGSTYYADSVKGRFTISRDNAKNTVYLQMNSLKPEDTAVYYCVDYWYNYLQSGWEDDYWGQGTQVTVSS” the value was “low polyreactivity”; for “QVQLVESGGGLVQAGGSLRLSCAASGSIFAWYGMGWSRQAPGKERELVAAISTAGSTNYADSVKGRFTISRDNAKNTVYFQMNSLKPEDTAVYYCAKKSSWYYPERFDYWGQGTQVTVSS”, “low polyreactivity”. For “QVQLVESGGGLVQAGGSLRLSCAASGSIFAYNAMGWYRQAPGKERELVAAITISGGRTYYADSVKGRFTISRDNAKNTVYLQMNSLKPEDTAVYYCAARYPSGTRKWYGYWGQGTQVTVSS” the value was “high polyreactivity”; for “QVQLVESGGGLVQAGGSLRLSCAASGSIFAYNAMGWYRQAPGKERELVASISTGDSTNYADSVKGRFTISRENAKNTDYLQMNSMKPEDTAVYYCNADSYPYYVYGSNVYWGQGSQVTVSS”, “low polyreactivity”. As to “QVQLVESGGGLVQAGGSLRLSCAASGSIFAYYAMGWSRQAPGKERELVASIDWSGDLYVRDSVKGRFTISRDNAKNTVYLQMNSLKPEDTAVYYCAADVGFGVVFYDYWGQGTQVTVSS”, the “polyreactivity (PSR sort gate)” value is “low polyreactivity”. The value for “QVQLVESGGGLVQAGGSLRLSCAASGSIFAYYAMGWYRQAPGKERELVADITSSGGITYYADSVKGRFTISRDNAKNTVYLQMNSLKPEDTAVYYCNADSWAIGGGSYPYDYWGQGTQVTVSS” was “low polyreactivity”.

Consider “QVQLVESGGGLVQAGGSLRLSCAASGSIFCSYAMAWYRQAPGKERELVASITRSGGSTYYADSVKGRFTISRDNAKNTVYLQMNSLKPEDTAVYYCNARRTTRWGSSKYEYDYWGQGTQVTVSS”, for which the “polyreactivity (PSR sort gate)” value was “high polyreactivity”.
